Data from US20160333095A1 (published 2016).
Residue numbers refer to the chain shown, from its start.

T1: cynomolgus CD3 (UniProt Q95LI5 22-198)
T1 chain: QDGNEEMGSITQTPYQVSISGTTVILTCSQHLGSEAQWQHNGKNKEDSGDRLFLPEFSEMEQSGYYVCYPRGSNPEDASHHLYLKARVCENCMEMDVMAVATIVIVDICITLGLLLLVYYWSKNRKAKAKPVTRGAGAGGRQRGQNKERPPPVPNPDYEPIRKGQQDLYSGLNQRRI

B1: IgG1-huCD3-H4L3-LFLEDA (antibody, V domains shown)
VH: EVKLVESGGGLVKPGRSLRLSCAASGFTFNTYAMNWVRQAPGKGLEWVARIRSKYNNYATYYADSVKDRFTISRDDSKSILYLQMNSLKTEDTAMYYCVRHGNFGNSYVSWFAYWGQGTMVTVSS
VL: QAVVTQEPSFSVSPGGTVTLTCRSSTGAVTTSNYANWVQQTPGQAFRGLIGGTNKRAPGVPARFSGSILGNKAALTITGAQADDESDYYCALWYSNLWVFGGGTKLTVL
B2: IgG1-huCD3-H4L1-LFLEDA (antibody, V domains shown)
VH: B1 VH
VL: not shown
B3: IgG1-CD3-LFLEDA (antibody, V domains shown)
VH: B1 VH with V5L, K13Q, G15K, R16G, R19K, K78Q, S87N, M120L, S125A
VL: QAVVTQESALTTSPGETVTLTCRSSTGAVTTSNYANWVQEKPDHLFTGLIGGTNKRAPGVPARFSGSLIGDKAALTITGAQTEDEAIYFCALWYSNLWVFGGGTKLTVL
B4: IgG1-huCD3-H1L3-LFLEDA (antibody, V domains shown)
VH: B1 VH with K13Q, R16G, I80S, S87N, M120L
VL: B1 VL
B5: IgG1-huCD3-H3L1-LFLEDA (antibody, V domains shown)
VH: B1 VH with M120L
VL: not shown
B6: IgG1-huCD3-H3L3-LFLEDA (antibody, V domains shown)
VH: B1 VH with M120L
VL: B1 VL
B7: IgG1-huCD3-H4L1 (antibody, V domains shown)
VH: B1 VH
VL: not shown
B8: IgG1-huCD3-H1L1 (antibody, V domains shown)
VH: B1 VH with K13Q, R16G, I80S, S87N, M120L
VL: not shown
B9: IgG1-huCD3-H1L3 (antibody, V domains shown)
VH: B1 VH with K13Q, R16G, I80S, S87N, M120L
VL: B1 VL
B10: IgG1-huCD3-H1L2 (antibody, V domains shown)
VH: B1 VH with K13Q, R16G, I80S, S87N, M120L
VL: B1 VL with D87I, Y89F
B11: IgG1-huCD3-H3L3 (antibody, V domains shown)
VH: B1 VH with M120L
VL: B1 VL
B12: bsIgG1-huCD3-H3L3×HER2-LFLEDA (bispecific antibody, V domains shown)
VH 1: B1 VH with M120L
VL 1: B1 VL
VH 2: QVQLVQSGAEVKKPGASVKVSCKASGYTFTNYGISWVRQAPGQGLEWMGWLSAYSGNTIYAQKLQGRVTMTTDTSTTTAYMELRSLRSDDTAVYYCARDRIVVRPDYFDYWGQGTLVTVSS
VL 2: EIVLTQSPATLSLSPGERATLSCRASQSVSSYLAWYQQKPGQAPRLLIYDASNRATGIPARFSGSGSGTDFTLTISSLEPEDFAVYYCQQRSNWPRTFGQGTKVEIK
B13: bsIgG1-huCD3-H1L3×HER2-LFLEDA (bispecific antibody, V domains shown)
VH 1: B1 VH with K13Q, R16G, I80S, S87N, M120L
VL 1: B1 VL
VH 2: B12 VH 2
VL 2: B12 VL 2
B14: bsIgG1-huCD3-H4L1×HER2-LFLEDA (bispecific antibody, V domains shown)
VH 1: B1 VH
VL 1: not shown
VH 2: B12 VH 2
VL 2: B12 VL 2
B15: bsIgG1-huCD3-H4L3×HER2-LFLEDA (bispecific antibody, V domains shown)
VH 1: B1 VH
VL 1: B1 VL
VH 2: B12 VH 2
VL 2: B12 VL 2
B16: bsIgG1 huCD3-H3L1×HER2-LFLEDA (bispecific antibody, V domains shown)
VH 1: B1 VH with M120L
VL 1: not shown
VH 2: B12 VH 2
VL 2: B12 VL 2
B17: bsIgG1-huCD3-H1L1×HER2-LFLEDA (bispecific antibody, V domains shown)
VH 1: B1 VH with K13Q, R16G, I80S, S87N, M120L
VL 1: not shown
VH 2: B12 VH 2
VL 2: B12 VL 2
B18: IgG1-huCD3-H1L1-LFLEDA (antibody, V domains shown)
VH: B1 VH with K13Q, R16G, I80S, S87N, M120L
VL: not shown
B19: bsIgG1 CD3×HER2 (bispecific antibody, V domains shown)
VH 1: B1 VH with V5L, K13Q, G15K, R16G, R19K, K78Q, S87N, M120L, S125A
VL 1: B3 VL
VH 2: B12 VH 2
VL 2: B12 VL 2

Each binder was assayed against T2, human CD3 (UniProt P07766 22-207) (assay: FACS binding, Jurkat cells).
T2 sequence (P07766 22-207): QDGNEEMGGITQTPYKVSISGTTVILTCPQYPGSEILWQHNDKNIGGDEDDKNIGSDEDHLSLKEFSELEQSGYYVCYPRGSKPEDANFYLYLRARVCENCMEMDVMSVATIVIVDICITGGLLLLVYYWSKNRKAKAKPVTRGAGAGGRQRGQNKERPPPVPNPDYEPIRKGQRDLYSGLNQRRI

EC50	Binder
0.08 µg/mL	B1
0.06 µg/mL	B2
0.27 µg/mL	B3
0.11 µg/mL	B4
0.1 µg/mL	B5
0.08 µg/mL	B6

Target: T1, cynomolgus CD3
Experiment: FACS binding, HSC-F cells; Fig 2A

EC50	Binder
0.26 µg/mL	B7
0.3 µg/mL	B3
0.37 µg/mL	B8
0.28 µg/mL	B9
0.31 µg/mL	B10
0.19 µg/mL	B5
0.11 µg/mL	B11

Target: T2, human CD3
Experiment: FACS binding, Jurkat cells
Remark: another data set of the same source

EC50	Binder
0.74 µg/mL	B12
0.58 µg/mL	B13
0.62 µg/mL	B14
0.59 µg/mL	B15
0.18 µg/mL	B3
0.64 µg/mL	B16

Each binder was assayed against T2, human CD3 (assay: FACS binding, Jurkat cells; Fig 1A).

EC50	Binder
0.05 µg/mL	B7
0.08 µg/mL	B3
0.06 µg/mL	B9
0.08 µg/mL	B10
0.04 µg/mL	B5
0.02 µg/mL	B11

Target: T1, cynomolgus CD3
Experiment: FACS binding, HSC-F cells; second row printed H4L1; graph legend indicates H4L3

EC50	Binder
0.24 µg/mL	B15

Target: T1, cynomolgus CD3
Experiment: FACS binding, HSC-F cells; Fig 2B

EC50	Binder
0.47 µg/mL	B3
3.54 µg/mL	B16
0.3 µg/mL	B5

Target: T1, cynomolgus CD3
Experiment: FACS binding, HSC-F cells

EC50	Binder
0.26 µg/mL	B12
0.25 µg/mL	B13
0.32 µg/mL	B17
0.36 µg/mL	B14
0.06 µg/mL	B3
0.28 µg/mL	B16

Target: T1, cynomolgus CD3
Experiment: FACS binding, HSC-F cells
Remark: another data set of the same source

EC50	Binder
0.02 µg/mL	B1
0.03 µg/mL	B2
0.06 µg/mL	B3
0.03 µg/mL	B18
0.03 µg/mL	B4
0.04 µg/mL	B5
0.03 µg/mL	B6

These binders were tested against T2, human CD3 (assay: FACS binding, Jurkat cells; Fig 1B).

EC50	Binder
0.07 µg/mL	B3
0.28 µg/mL	B16
0.68 µg/mL	B19
0.04 µg/mL	B5
